Data on five molecules can be found in patent US9817004B2, “Development and use of cysteine-labeled fluorescent probes of unbound analytes” (priority 2008, dated 2017).

Numbering of substitutions follows the chain as printed. In names and notes the source's numbering stands.

Assay [1] in a line: Fluorescence emission spectra with increasing oleic acid. Format: binding. Conditions: acrylodan labeled; 22° C., Ex=386 nm. As for the experimental part: FIGS. 1A-1C show Fluorescence spectra with increasing oleic acid at 22° C. Ex=386 nm.
This is an example of the type of fluorescence response that is a necessary characteristic of a probe. […] This example illustrates that altering specific sites can yield effective probes.

Assay [2] is described as follows: FFAu response-profile screening of probes (FFA specificity). The class given is binding. Conditions: cysteine labeled with acrylodan at pH 7.0; FFA to which probe has improved specificity. As for the experimental part: In some embodiments, aliquots of the probes prepared as described above are placed in multi-well plates, suitable for fluorescence measurements. Defined amounts of unbound analytes are added to each well and a fluorescence signal from the wells containing probe and analytes are compared to wells containing only the probe. The values obtained are compared with those of a ‘reference’ probe. The analytes may be fatty acids or other unbound metabolites. Preferably, the number of wells in the multiwell plate is between 1 and 1536. […] For many analytes it is important that they be added to each well in complex with a carrier molecule, for example albumin, to buffer the unbound analyte and thereby clamp its concentration to well defined values. Clamping ensures that the concentration of analyte in the aqueous phase in the well is unaffected by binding to the surfaces of the well or the probes themselves. Clamping is essential for discovery of probes because analytes have different solubilities and therefore different affinities for surfaces. Highly insoluble analytes added without proper clamping may bind to the surfaces and be unavailable for binding to the probe. In this example the probe might incorrectly give the appearance of no response to the insoluble analyte. Thus to determine the correct response profile (specificities) for each probe each analyte's concentration must be clamped.
The fluorescence intensity ratio (“R” value) for a given probe is determined. The ratio is calculated using the following formula: R=Fλ1/Fλ2 wherein, Fλ1 is the measured fluorescence intensities (intensity of the probe with the analyte present minus intensity of the analyte without probe present) at wavelength 1 and Fλ2 is the measured fluorescence intensities (intensity of the probe with the analyte present minus intensity of the analyte without probe present) at wavelength 2. Then, for a given probe, ΔR, the difference in R value between the measurement in the presence of each analyte and in the absence of each analyte, is calculated as follows: ΔR=R+analyte−R0 The ΔR value for a given probe is then compared to a reference probe, for example, ADIFAB or ADIFAB2, by ΔR/ΔRreferenee. This value is an indication of how dissimilar the new probe (derived by mutation of the template) is to the reference. By this method, probes with new and useful characteristics may be identified. Measurements of fluorescence intensities are obtained using standard techniques.
More than 40 libraries of cysteine-labeled mutant probes, using templates derived from SEQ ID NO: 5, with the number of different mutant probes in the various libraries ranging from 2000 to 2,000,000 have been generated using the methods described in U.S. Pat. No. 7,601,510, incorporated herein by reference. […]

B1: ADIFAB: rat intestinal FABP (SEQ ID NO:2) labeled with acrylodan at lysine 27 (protein, listed as Rattus norvegicus)
chain: AFDGTWKVDRNENYEKFMEKMGINVVKRKLGAHDNLKLTITQEGNKFTVKESSNFRNIDVVFELGVDFAYSLADGTELTGTWTMEGNKLVGKFKRVDNGKELIAVREISGNELIQTYTYEGVEAKRIFKKE
modifications: acrylodan label at K27; PEPTIDE (1)...(131) wild-type rat intestinal fatty acid binding protein; …ON (1)...(1)
As to B1, the “fluorescence response upon FFA binding (spectral shift / ratio response)” value in assay [1] was “red shift in its fluorescence emission spectrum upon binding FFA”.

B2: L10P7A4-L30C: acrylodan cysteine-labeled rI-FABP mutein; SEQ ID 5 mutations 14L 18L 27A 30C 31Y 72A 73L 117A 131D (protein, listed as Rattus norvegicus)
chain: AFDGTWKVDRNENLEKFLEKMGINVVARKCYAHDNLKLTITQEGNKFTVKESSNFRNIDVVFELGVDFAYSALDGTELTGTWTMEGNKLVGKFKRVDNGKELIAVREISGNELIQTATYEGVEAKRIFKKDRGHHHHHH
modifications: acrylodan label at C30; MUTAGEN (131)...(131) rat intestinal fatty acid binding protein with Glu 131 to Asp subsitition.; COOH-terminal affinity tag comprising Arg132, Gly133 and 6 histidines
For the molecule B2, in assay [2], the Specificity entry is “DHA”.

B3: L50BP9D5: acrylodan cysteine-labeled rI-FABP mutein; 18L 21F 23L 27C 31N 72S 73T 74A 76I 117N 131D (protein, listed as Rattus norvegicus)
chain: AFDGTWKVDRNENYEKFLEKFGLNVVCRKLNAHDNLKLTITQEGNKFTVKESSNFRNIDVVFELGVDFAYSSTAGIELTGTWTMEGNKLVGKFKRVDNGKELIAVREISGNELIQTNTYEGVEAKRIFKKDRGHHHHHH
modifications: acrylodan label on cysteine; MUTAGEN (131)...(131) rat intestinal fatty acid binding protein with Glu 131 to Asp subsitition.; COOH-terminal affinity tag comprising Arg132, Gly133 and 6 histidines
notes: acrylodan cysteine-labeled rI-FABP mutein; 18L 21F 23L 27C 31N 72S 73T 74A 76I 117N 131D
B3: the Specificity entry in assay [2] is “PA/POA”.

B4: L68P3H10: 18L 23A 27C 31N 33N 55Q 72W 73T 74L 76I 106A 115E 117V 131D (protein, listed as Rattus norvegicus)
chain: B3 chain with F21M, L23A, H33N, F55Q, S72W, A74L, R106A, Q115E, N117V
modifications: acrylodan label on cysteine; MUTAGEN (131)...(131) rat intestinal fatty acid binding protein with Glu 131 to Asp subsitition.; COOH-terminal affinity tag comprising Arg132, Gly133 and 6 histidines
notes: 18L 23A 27C 31N 33N 55Q 72W 73T 74L 76I 106A 115E 117V 131D
On to B4, for which, in assay [2], the Specificity entry is recorded as “DHA”.

B5: L61P8B12: 8I 14L 18L 23L 27Y 30C 31V 53I 55W 72G 74A 78V 82V 91Y 93M 102V 106W 115W 117L 131D (protein, listed as Rattus norvegicus)
chain: AFDGTWKIDRNENLEKFLEKMGLNVVYRKCVAHDNLKLTITQEGNKFTVKESINWRNIDVVFELGVDFAYSGAAGTEVTGTVTMEGNKLVYKMKRVDNGKEVIAVWEISGNELIWTLTYEGVEAKRIFKKDRGHHHHHH
modifications: acrylodan label on cysteine; MUTAGEN (131)...(131) rat intestinal fatty acid binding protein with Glu 131 to Asp subsitition.; COOH-terminal affinity tag comprising Arg132, Gly133 and 6 histidines
notes: 8I 14L 18L 23L 27Y 30C 31V 53I 55W 72G 74A 78V 82V 91Y 93M 102V 106W 115W 117L 131D
B5: the Specificity entry in assay [2] was “POA”.
